From PMC6726571
Where a chain is given by its changes, count along the chain named. Like-named read-outs stand apart in the source and are kept apart here.

B1: CPEB2 exon 4 WT RNA, biotinylated (ssRNA)
RNA: GUGAGAUCUAGUUUGCAGUUGCCAGCUUGGGGCUCAGAUUCACUCCAAGAUAGUUGGUGCACUGCAGCCGGAACAUCCAGAAUAGACCAG
B2: CPEB2 exon 4 MUT RNA (CAUCC to GAGUC), biotinylated (ssRNA)
RNA: B1 RNA with C74G, U76G, C77U

Legend:
[1] = target: T1, SRSF3 (SRp20), recombinant (UniProt P84103 1-164); test: pull-down
T1 sequence: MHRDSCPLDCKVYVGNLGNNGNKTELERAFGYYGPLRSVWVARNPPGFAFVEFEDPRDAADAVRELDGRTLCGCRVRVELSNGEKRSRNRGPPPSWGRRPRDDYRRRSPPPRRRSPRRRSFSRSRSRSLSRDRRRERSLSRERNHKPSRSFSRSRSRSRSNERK

[2] = target: T1, SRSF3 (SRp20), recombinant; test: pull-down; remark: listed apart in the source

Binder	binding result [1]	binding result [2]
B1	binds	
B2		no binding
